Measurements as given in publication doi:10.1101/2025.10.16.682859 (bioRxiv, 2025).

Biological target: the molecule itself
Assay: cryo-EM structure

B1: human asparagine synthetase (ASNS) (enzyme)
chain: CGIWALFGSDDCLSVQCLSAMKIAHRGPDAFRFENVNGYTNCCFGFHRLAVVDPLFGMQPIRVKKYPYLWLCYNGEIYNHKKMQQHFEFEYQTKVDGEIILHLYDKGGIEQTICMLDGVFAFVLLDTANKKVFLGRDTYGVRPLFKAMTEDGFLAVCSEAKGLVTLKHSATPFLKVEPFLPGHYEVLDLKPNGKVASVEMVKYHHCRDVPLHALYDNVEKLFPGFEIETVKNNLRILFNNAVKKRLMTDRRIGCLLSGGLDSSLVAATLLKQLKEAQVQYPLQTFAIGMEDSPDLLAARKVADHIGSEHYEVLFNSEEGIQALDEVIFSLETYDITTVRASVGMYLISKYIRKNTDSVVIFSGEGSDELTQGYIYFHKAPSPEKAEEESERLLRELYLFDVLRADRTTAAHGLELRVPFLDHRFSSYYLSLPPEMRIPKNGIEKHLLRETFEDSNLIPKEILWRPKEAFSDGITSVKNSWFKILQEYVEHQVDDAMMANAAQKFPFNTPKTKEGYYYRQVFERHYPGRADWLSHYWMPKWINATDPSARTLTHYKSAVKA
B1 was tested, and the “stoichiometry N” value was 2.
